T1: NUPR1 (recombinant, purified) (UniProt O60356 1-82)
T1 chain: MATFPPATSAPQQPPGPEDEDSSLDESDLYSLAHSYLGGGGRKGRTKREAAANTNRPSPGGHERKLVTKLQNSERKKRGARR

B1: importin-α3 (residues 1–520), recombinant (domain or fragment, UniProt O00629 1-520, looked up)
chain: MADNEKLDNQRLKNFKNKGRDLETMRRQRNEVVVELRKNKRDEHLLKRRNVPHEDICEDSDIDGDYRVQNTSLEAIVQNASSDNQGIQLSAVQAARKLLSSDRNPPIDDLIKSGILPILVHCLERDDNPSLQFEAAWALTNIASGTSEQTQAVVQSNAVPLFLRLLHSPHQNVCEQAVWALGNIIGDGPQCRDYVISLGVVKPLLSFISPSIPITFLRNVTWVMVNLCRHKDPPPPMETIQEILPALCVLIHHTDVNILVDTVWALSYLTDAGNEQIQMVIDSGIVPHLVPLLSHQEVKVQTAALRAVGNIVTGTDEQTQVVLNCDALSHFPALLTHPKEKINKEAVWFLSNITAGNQQQVQAVIDANLVPMIIHLLDKGDFGTQKEAAWAISNLTISGRKDQVAYLIQQNVIPPFCNLLTVKDAQVVQVVLDGLSNILKMAEDEAETIGNLIEECGGLEKIEQLQNHENEDIYKLAYEIIDQFFSSDDIDEDPSLVPEAIQGGTFGFNSSANVPTEGFQ
notes: importin-α3 (KPNA4), residues 1–520, codon-optimized synthetic vector (Nzytech); called a 58 kDa protein with 6 tryptophans; also called KPNA4; importin-alpha3; source: final Superdex G200 16/60
B2: NUPR1 (recombinant, purified) (natural protein, UniProt O60356 1-82, looked up)
chain: T1 chain
notes: Nuclear Protein 1 (NUPR1), described as an intrinsically disordered protein of 82 amino acids with two tyrosines (Tyr30, Tyr36); also called Nuclear Protein 1; rNUPR1; source: expressed and purified as described (12)

How the values were obtained:
[1] = target: T1, NUPR1 (recombinant, purified); test: ITC; 25°C, with ZZW-115
[2] = target: B2; test: ITC; as a3 with ZZW-115 kept constant at 100 μM during the titration; analysed as an apparent quasibinary system and as an exact ternary system; 25°C; details: both partners purified
[3] = target: B2; test: ITC; importin-α3 (100–110 μM) in the syringe, NUPR1 (5–10 μM) in the calorimetric cell, Tris 50 mM pH 8, 25°C; single binding site model (1:1); details: both partners purified
[4] = target: B1; test: ITC; as a3 with ZZW-115 kept constant at 100 μM during the titration; analysed as an apparent quasibinary system and as an exact ternary system; 25°C; details: both partners purified
[5] = target: B1; test: ITC; importin-α3 (100–110 μM) in the syringe, NUPR1 (5–10 μM) in the calorimetric cell, Tris 50 mM pH 8, 25°C; single binding site model (1:1); details: both partners purified

B1
Ka [1]: 28000 M⁻¹ | fold reduction in affinity with 100 μM ZZW-115 (ternary equilibrium analysis) [2]: 21 fold | dH [3]: -57.3 kJ/mol

B2
Kd [4]: 35 µM | Ka [5]: 690000 M⁻¹ | Kd [5]: 1.4 µM

From PMC7526551 (JCI Insight, 2020)
